Results: patent US10864252B2, “Anti-SSX-2 T cell receptors and related materials and methods of use” (The United States of America, as represented by the …, priority 2010, dated 2020)

Experiments:
COS-A2-SSX-2 cells = test: Proliferation ([3H]-thymidine) on co-culture with COS-A2-SSX-2 cells; assay type: cell-based; conditions: PBL from Donor 1 or Donor 2; FIGS. 6A, 6B
Procedure: PBLs from Donor 1 or Donor 2 that were untransduced (UT) or transduced with a vector comprising SEQ ID NO: 27 (SSX-2 TCR), SEQ ID NO: 29 (codon-optimized SSX-2 TCR), or SEQ ID NO: 30 (codon-optimized SSX-2 TCR including mouse constant region) were co-cultured with COS-A2-SSX-2 cells. Proliferation in terms of [^3H]-thymidine incorporation (CPM) was measured and is shown in FIG. 6A (Donor 1) and 6B (Donor 2).

Lau 149 mel = test: IFN-γ release, co-culture with Lau 149 mel; assay type: cell-based; conditions: co-cultured with Lau 149 mel
Description: (§1) PBLs that were untransduced (UT) or transduced with a vector comprising SEQ ID NO: 27 (SSX-2 TCR), SEQ ID NO: 29 (codon-optimized SSX-2 TCR), or SEQ ID NO: 30 (codon-optimized SSX-2 TCR including mouse constant region) were co-cultured with various tumor cell lines. Tables 5 and 6 show the resulting interferon-γ levels (pg/ml) measured with respect to PBL from two different donors.

SK MEL37 = test: IFN-γ release, co-culture with SK MEL37 melanoma; assay type: cell-based
Description: as §1, with “SSX-2 TCR-transduced PBLs were co-cultured with various tumor cell lines. […] FIGS. 4A and 4B, FIG. 11, and Tables 3 and 4 show additional results of PBLs from human donors that were transduced with the SSX-2 TCR of Example 2 when these PBLs were co-cultured with various tumor cells. PBLs” for “PBLs”

938-A2 mel = test: IFN-γ release, co-culture with 938-A2 melanoma; assay type: cell-based; conditions: co-cultured with 938-A2 mel
Description: as §1, with “SSX-2 TCR-transduced PBLs were co-cultured with various tumor cell lines. […] FIGS. 4A and 4B, FIG. 11, and Tables 3 and 4 show additional results of PBLs from human donors that were transduced with the SSX-2 TCR of Example 2 when these PBLs were co-cultured with various tumor cells. PBLs” for “PBLs”

938 mel = test: IFN-γ release, co-culture with 938; assay type: cell-based; conditions: co-cultured with 938 mel
Description: as §1, with “SSX-2 TCR-transduced PBLs were co-cultured with various tumor cell lines. […] FIGS. 4A and 4B, FIG. 11, and Tables 3 and 4 show additional results of PBLs from human donors that were transduced with the SSX-2 TCR of Example 2 when these PBLs were co-cultured with various tumor cells. PBLs” for “PBLs”

K562 = test: IFN-γ release, co-culture with K562; assay type: cell-based; conditions: co-cultured with K562
Description: as §1

1300 mel = test: IFN-γ release, co-culture with 1300 mel; assay type: cell-based; conditions: co-cultured with 1300 mel
Description: as §1

[1] = test system: SSX-2+/HLA-A2+ target cells; test: Percent lysis of target cells; assay type: cell-based; conditions: FIGS. 7A-D and 8A-D, various E:T ratios
624 mel = test: IFN-γ release, co-culture with 624 melanoma; assay type: cell-based; conditions: co-cultured with 624 mel
Description: as §1, with “SSX-2 TCR-transduced PBLs were co-cultured with various tumor cell lines. […] FIGS. 4A and 4B, FIG. 11, and Tables 3 and 4 show additional results of PBLs from human donors that were transduced with the SSX-2 TCR of Example 2 when these PBLs were co-cultured with various tumor cells. PBLs” for “PBLs”

COS-A2 = test: IFN-γ release, TCR-transduced PBL co-cultured with COS-A2; assay type: cell-based; conditions: co-cultured with Cos-A2
Description: as §1, with “SSX-2 TCR-transduced PBLs were co-cultured with various tumor cell lines. […] FIGS. 4A and 4B, FIG. 11, and Tables 3 and 4 show additional results of PBLs from human donors that were transduced with the SSX-2 TCR of Example 2 when these PBLs were co-cultured with various tumor cells. PBLs” for “PBLs”

K562-A2-Erythroleukemia = test: IFN-γ release, co-culture with K562-A2 erythroleukemia; assay type: cell-based; conditions: co-cultured with K562-A2-Erythroleukemia
Description: as §1

U251 Glioma = test: IFN-γ release, co-culture with U251 glioma; assay type: cell-based; conditions: co-cultured with U251 Glioma
Description: as §1, with “SSX-2 TCR-transduced PBLs were co-cultured with various tumor cell lines. […] FIGS. 4A and 4B, FIG. 11, and Tables 3 and 4 show additional results of PBLs from human donors that were transduced with the SSX-2 TCR of Example 2 when these PBLs were co-cultured with various tumor cells. PBLs” for “PBLs”

T331A mel = test: IFN-γ release, co-culture with T331A; assay type: cell-based; conditions: co-cultured with T331A mel
Description: as §1, with “SSX-2 TCR-transduced PBLs were co-cultured with various tumor cell lines. […] FIGS. 4A and 4B, FIG. 11, and Tables 3 and 4 show additional results of PBLs from human donors that were transduced with the SSX-2 TCR of Example 2 when these PBLs were co-cultured with various tumor cells. PBLs” for “PBLs”

COS-A2-SSX2 cells = test: CD137 (4-1BB) upregulation after co-culture with COS-A2-SSX2 cells; assay type: cell-based; conditions: FACS after co-culture with COS-A2-SSX2 cells
[2] = IFN-γ release, transduced PBL without target cells (medium / T cell alone); assay type: cell-based, human; conditions: T cell alone
Description: as §1, with “SSX-2 TCR-transduced PBLs were co-cultured with various tumor cell lines. […] FIGS. 4A and 4B, FIG. 11, and Tables 3 and 4 show additional results of PBLs from human donors that were transduced with the SSX-2 TCR of Example 2 when these PBLs were co-cultured with various tumor cells. PBLs” for “PBLs”

[3] = test system: SSX2+/HLA-A2+ target cells; test: Proliferation ([3H]-thymidine) on co-culture with tumor cells; assay type: cell-based; conditions: 1300 mel, 624 mel, 888 mel, SK mel 37 or COS-A2-SSX-2 cells; FIGS. 9A-9E
Description: In another experiment, PBLs transduced as described in this example were co-cultured with 1300 mel cells, 624 mel cells, 888 mel cells, SK mel 37 cells, or COS-A2-SSX-2 cells.

293-A2 = test: IFN-γ release, co-culture with 293-A2; assay type: cell-based; conditions: co-cultured with 293-A2
Description: as §1, with “SSX-2 TCR-transduced PBLs were co-cultured with various tumor cell lines. […] FIGS. 4A and 4B, FIG. 11, and Tables 3 and 4 show additional results of PBLs from human donors that were transduced with the SSX-2 TCR of Example 2 when these PBLs were co-cultured with various tumor cells. PBLs” for “PBLs”

SKOV3 Ovarian = test: IFN-γ release, co-culture with SKOV3 ovarian; assay type: cell-based; conditions: co-cultured with SKOV3 Ovarian
Description: as §1, with “SSX-2 TCR-transduced PBLs were co-cultured with various tumor cell lines. […] FIGS. 4A and 4B, FIG. 11, and Tables 3 and 4 show additional results of PBLs from human donors that were transduced with the SSX-2 TCR of Example 2 when these PBLs were co-cultured with various tumor cells. PBLs” for “PBLs”

293-A2 SSX2 = test: IFN-γ release, co-culture with 293-A2 SSX2; assay type: cell-based; conditions: co-cultured with 293-A2-SSX2
Description: as §1, with “SSX-2 TCR-transduced PBLs were co-cultured with various tumor cell lines. […] FIGS. 4A and 4B, FIG. 11, and Tables 3 and 4 show additional results of PBLs from human donors that were transduced with the SSX-2 TCR of Example 2 when these PBLs were co-cultured with various tumor cells. PBLs” for “PBLs”

COS-A2 SSX2 = test: IFN-γ release, co-culture with COS-A2 SSX2; assay type: cell-based; conditions: co-cultured with COS-A2-SSX2
Description: as §1, with “SSX-2 TCR-transduced PBLs were co-cultured with various tumor cell lines. […] FIGS. 4A and 4B, FIG. 11, and Tables 3 and 4 show additional results of PBLs from human donors that were transduced with the SSX-2 TCR of Example 2 when these PBLs were co-cultured with various tumor cells. PBLs” for “PBLs”

B1: SSX2-TCR-MCR: codon-optimized human/mouse chimeric anti-SSX-2 TCR with mouse constant region, encoded by SEQ ID NO: 30, tested as transduced human PBLs (protein)
chain: MALSSLLKVVTASLWLGPGIAQKITQTQPGMFVQEKEAVTLDCTYDTSDPSYGLFWYKQPSSGEMIFLIYQGSYDQQNATEGRYSLNFQKARKSANLVISASQLGDSAMYFCAMTSGFGNEKLTFGTGTRLTIIPNDIQNPEPAVYQLKDPRSQDSTLCLFTDFDSQINVPKTMESGTFITDKTVLDMKAMDSKSNGAIAWSNQTSFTCQDIFKETNATYPSSDVPCDATLTEKSFETDMNLNFQNLSVMGLRILLLKVAGFNLLMTLRLWSSRAKRSGSGATNFSLLKQAGDVEENPGPMGPGLLHWMALCLLGTGHGDAMVIQNPRYQVTQFGKPVTLSCSQTLNHNVMYWYQQKSSQAPKLLFHYYDKDFNNEADTPDNFQSRRPNTSFCFLDIRSPGLGDAAMYLCATSRGQGGQPQHFGDGTRLSILEDLRNVTPPKVSLFEPSKAEIANKQKATLVCLARGFFPDHVELSWWVNGKEVHSGVSTDPQAYKESNYSYCLSSRLRVSATFWHNPRNHFRCQVQFHGLSEEDKWPEGSPKPVTQNISAEAWGRACGITSSYQQGVLSATILYEILLGKATLYAVLVSTLVVMAMVKRKNS
proliferation ([3H]-thymidine incorporation) (COS-A2-SSX-2 cells): proliferate in response to co-culture with COS-A2-SSX-2 cells | interferon-γ levels (Lau 149 mel; Table 5 donor): 270 pg/mL | interferon-γ levels (Lau 149 mel; Table 6 donor): 142 pg/mL | interferon-γ levels (SK MEL37; Table 5 donor, co-cultured with Skmel 37 mel): 10401 pg/mL | interferon-γ levels (SK MEL37; Table 6 donor, co-cultured with Skmel 37): 10630 pg/mL | interferon-γ levels (938-A2 mel; Table 5 donor): 51092 pg/mL | interferon-γ levels (938-A2 mel; Table 6 donor): 40047 pg/mL | interferon-γ levels (938 mel; Table 5 donor): 1122 pg/mL | interferon-γ levels (938 mel; Table 6 donor): 932 pg/mL | interferon-γ levels (K562; Table 5 donor): 2752 pg/mL | interferon-γ levels (K562; Table 6 donor): 3328 pg/mL | interferon-γ levels (1300 mel; Table 5 donor): 2715 pg/mL | interferon-γ levels (1300 mel; Table 6 donor): 3460 pg/mL | lytic activity (percent lysis) [1]: specific lytic activity against SSX-2^+/HLA-A2^+ target cells | interferon-γ levels (624 mel; Table 5 donor): 46999 pg/mL | interferon-γ levels (624 mel; Table 6 donor): 57693 pg/mL | interferon-γ levels (COS-A2; Table 5 donor): 2827 pg/mL | interferon-γ levels (COS-A2; Table 6 donor): 553 pg/mL | interferon-γ levels (K562-A2-Erythroleukemia; Table 5 donor): 17437 pg/mL | interferon-γ levels (K562-A2-Erythroleukemia; Table 6 donor): 13555 pg/mL | interferon-γ levels (U251 Glioma; Table 5 donor): 19027 pg/mL | interferon-γ levels (U251 Glioma; Table 6 donor): 20027 pg/mL | interferon-γ levels (T331A mel; Table 5 donor): 30 pg/mL | interferon-γ levels (T331A mel; Table 6 donor): 38 pg/mL | activation marker CD137 (4-1BB) (COS-A2-SSX2 cells): upregulated | interferon-γ levels ([2]; Table 5 donor): 327 pg/mL | interferon-γ levels ([2]; Table 6 donor): 554 pg/mL | proliferation ([3H]-thymidine incorporation) [3]: proliferate in response to co-culture with SSX2+/HLA-A2+ target cells | interferon-γ levels (293-A2; Table 5 donor): 802 pg/mL | interferon-γ levels (293-A2; Table 6 donor): 1005 pg/mL | interferon-γ levels (SKOV3 Ovarian; Table 5 donor): 2221 pg/mL | interferon-γ levels (SKOV3 Ovarian; Table 6 donor): 9857 pg/mL | interferon-γ levels (293-A2 SSX2; Table 5 donor): 37258 pg/mL | interferon-γ levels (293-A2 SSX2; Table 6 donor): 47273 pg/mL | interferon-γ levels (COS-A2 SSX2; Table 5 donor): 56893 pg/mL | interferon-γ levels (COS-A2 SSX2; Table 6 donor): 164314 pg/mL
